US20050112121A1 (YALE UNIVERSITY, published 2005)

B1: Serrate (Drosophila), expression construct Ser-mtn (ligand, UniProt P18168 83-1407, looked up)
chain: AGNFELEILEISNTNSHLLNGYCCGMPAELRATKTIGCSPCTTAFRLCLKEYQTTEQGASISTGCSFGNATTKILGGSSFVLSDPGVGAIVLPFTFRWTKSFTLILQALDMYNTSYPDAERLIEETSYSGVILPSPEWKTLDHIGRNARITYRVRVQCAVTYYNTTCTTFCRPRDDQFGHYACGSEGQKLCLNGWQGVNCEEAICKAGCDPVHGKCDRPGECECRPGWRGPLCNECMVYPGCKHGSCNGSAWKCVCDTNWGGILCDQDLNFCGTHEPCKHGGTCENTAPDKYRCTCAEGLSGEQCEIVEHPCATRPCRNGGTCTLKTSNRTQAQVYRTSHGRSNMGRPVRRSSSMRSLDHLRPEGQALNGSSSPGLVSLGSLQLQQQLAPDFTCDCAAGWTGPTCEINIDECAGGPCEHGGTCIDLIGGFRCECPPEWHGDVCQVDVNECEAPHSAGIAANALLTTTATAIIGSNLSSTALLAALTSAVASTSLAIGPCINAKECRNQPGSFACICKEGWGGVTCAENLDDCVGQCRNGATCIDLVNDYRCACASGFKGRDCETDIDECATSPCRNGGECVDMVGKFNCICPLGYSGSLCEEAKENCTPSPCLEGHCLNTPEGYYCHCPPDRAGKHCEQLRPLCSQPPCNEGCFANVSLATSATTTTTTTTTATTTRKMAKPSGLPCSGHGSCEMSDVGTFCKCHVGHTGTFCEHNLNECSPNPCRNGGICLDGDGDFTCECMSGWTGKRCSERATGCYAGQCQNGGTCMPGAPDKALQPHCRCAPGWTGLFCAEAIDQCRGQPCHNGGTCESGAGWFRCVCAQGFSGPDCRINVNECSPQPCQGGATCIDGIGGYSCICPPGRHGLRCEILLSDPKSACQNASNTISPYTALNRSQNWLDIALTGRTEDDENCNACVCENGTSRCTNLWCGLPNCYKVDPLSKSSNLSGVCKQHEVCVPALSETCLSSPCNVRGDCRALEPSRRVAPPRLPAKSSCWPNQAVVNENCARLTILLALERVGKGASVEGLCSLVRVLLAAQLIKKPASTFGQDPGMLMVLCDLKTGTNDTVELTVSSSKLNDPQLPVAVGLLGELLSFRQLNGIQRRKELELQHAKLAALTSIVEVKLETARVADGSGHSLLIGVLCGVFIVLVGFSVFISLYWKQRLAYRTSSGMNLTPSLDALRHEEEKSNNLQNEENLRRYTNPLKGSTSSLRAATGMELSLNPAPELAASAASSSALHRSQPLFPPCDFERELDSSTGLKQAHKRSSQILLHKTQNSDMRKNTVGSLDSPRKDFGKRSINCKSMPPSSGDEGSDVLATTVMV
notes: whole, on cells

Experiments:
[1] = molecular target: Delta (Drosophila), expression construct pMTDl1 (Drosophila) (UniProt P10041); assay: S2 cell aggregation, 24 hr
[2] = molecular target: Delta (Drosophila), expression construct pMTDl1 (Drosophila) (UniProt P10041); assay: S2 cell aggregation, 48 hr
[3] = molecular target: Notch (Drosophila), full length Notch expression construct #1 pMtNMg (Drosophila) (UniProt P07207); assay: S2 cell aggregation, 24 hr, Notch+ cells alone
[4] = molecular target: Delta (Drosophila), expression construct pMTDl1 (Drosophila) (UniProt P10041); assay: S2 cell aggregation at 4 C, 1-2 hr, Notch+ cells pretreated with preimmune mouse sera (control; one of three experiments)
[5] = molecular target: the molecule itself; assay: S2 cell aggregation assay
From the text: (§1) FIG. 2. Notch Expression Constructs and the Deletion Mapping of the Delta/Serrate Binding Domain. S2 cells in log phase growth were transiently transfected with the series of expression constructs shown; the drawings represent the predicted protein products of the various Notch deletion mutants created. All expression constructs were derived from construct #1 pMtNMg. Transiently transfected cells were mixed with Delta expressing cells from the stably transformed line L49-6-7 or with transiently transfected Serrate expressing cells, induced with CuSO₄, incubated under aggregation conditions and then scored for their ability to aggregate using specific antisera and immunofluorescence microscopy. Aggregates were defined as clusters of four or more cells containing both Notch and Delta/Serrate expressing cells. The values given for % Aggregation refer to the percentage of all Notch expressing cells found in such clusters either with Delta (Dl) (left column) or with Serrate (Ser) (right column). The various Notch deletion constructs are represented diagrammatically with splice lines indicating the ligation junctions. Each EGF repeat is denoted as a stippled rectangular box and numbers of the EGF repeats on either side of a ligation junction are noted. At the ligation junctions, partial EGF repeats produced by the various deletions are denoted by open boxes and closed brackets (for example see #23 ΔCla+EGF(10-12)). Constructs #3-13 represent the ClaI deletion series. As diagrammed, four of the ClaI sites, in repeats 7, 9, 17 and 26, break the repeat in the middle, immediately after the third cysteine (denoted by open box repeats; see FIG. 3 for further clarification), while the fifth and most 3′ site breaks neatly between EGF repeats 30 and 31 (denoted by closed box repeat 31; again see FIG. 3). In construct #15 split, EGF repeat 14 which carries the split point mutation, is drawn as a striped box. In construct #33 ΔCla+XEGF(10-13), the Xenopus Notch derived EGF repeats are distinguished from Drosophila repeats by a different pattern of shading. […]

[6] = molecular target: T1, Notch (Drosophila), full length Notch expression construct #1 pMtNMg (Drosophila, UniProt P07207 53-2703); assay: S2 cell aggregation assay
T1 construct: whole, on cells; also called intact Notch; Notch+ cells
From the text: as §1

[7] = molecular target: B1; assay: S2 cell aggregation assay
From the text: as §1

T1 sequence (P07207 53-2703): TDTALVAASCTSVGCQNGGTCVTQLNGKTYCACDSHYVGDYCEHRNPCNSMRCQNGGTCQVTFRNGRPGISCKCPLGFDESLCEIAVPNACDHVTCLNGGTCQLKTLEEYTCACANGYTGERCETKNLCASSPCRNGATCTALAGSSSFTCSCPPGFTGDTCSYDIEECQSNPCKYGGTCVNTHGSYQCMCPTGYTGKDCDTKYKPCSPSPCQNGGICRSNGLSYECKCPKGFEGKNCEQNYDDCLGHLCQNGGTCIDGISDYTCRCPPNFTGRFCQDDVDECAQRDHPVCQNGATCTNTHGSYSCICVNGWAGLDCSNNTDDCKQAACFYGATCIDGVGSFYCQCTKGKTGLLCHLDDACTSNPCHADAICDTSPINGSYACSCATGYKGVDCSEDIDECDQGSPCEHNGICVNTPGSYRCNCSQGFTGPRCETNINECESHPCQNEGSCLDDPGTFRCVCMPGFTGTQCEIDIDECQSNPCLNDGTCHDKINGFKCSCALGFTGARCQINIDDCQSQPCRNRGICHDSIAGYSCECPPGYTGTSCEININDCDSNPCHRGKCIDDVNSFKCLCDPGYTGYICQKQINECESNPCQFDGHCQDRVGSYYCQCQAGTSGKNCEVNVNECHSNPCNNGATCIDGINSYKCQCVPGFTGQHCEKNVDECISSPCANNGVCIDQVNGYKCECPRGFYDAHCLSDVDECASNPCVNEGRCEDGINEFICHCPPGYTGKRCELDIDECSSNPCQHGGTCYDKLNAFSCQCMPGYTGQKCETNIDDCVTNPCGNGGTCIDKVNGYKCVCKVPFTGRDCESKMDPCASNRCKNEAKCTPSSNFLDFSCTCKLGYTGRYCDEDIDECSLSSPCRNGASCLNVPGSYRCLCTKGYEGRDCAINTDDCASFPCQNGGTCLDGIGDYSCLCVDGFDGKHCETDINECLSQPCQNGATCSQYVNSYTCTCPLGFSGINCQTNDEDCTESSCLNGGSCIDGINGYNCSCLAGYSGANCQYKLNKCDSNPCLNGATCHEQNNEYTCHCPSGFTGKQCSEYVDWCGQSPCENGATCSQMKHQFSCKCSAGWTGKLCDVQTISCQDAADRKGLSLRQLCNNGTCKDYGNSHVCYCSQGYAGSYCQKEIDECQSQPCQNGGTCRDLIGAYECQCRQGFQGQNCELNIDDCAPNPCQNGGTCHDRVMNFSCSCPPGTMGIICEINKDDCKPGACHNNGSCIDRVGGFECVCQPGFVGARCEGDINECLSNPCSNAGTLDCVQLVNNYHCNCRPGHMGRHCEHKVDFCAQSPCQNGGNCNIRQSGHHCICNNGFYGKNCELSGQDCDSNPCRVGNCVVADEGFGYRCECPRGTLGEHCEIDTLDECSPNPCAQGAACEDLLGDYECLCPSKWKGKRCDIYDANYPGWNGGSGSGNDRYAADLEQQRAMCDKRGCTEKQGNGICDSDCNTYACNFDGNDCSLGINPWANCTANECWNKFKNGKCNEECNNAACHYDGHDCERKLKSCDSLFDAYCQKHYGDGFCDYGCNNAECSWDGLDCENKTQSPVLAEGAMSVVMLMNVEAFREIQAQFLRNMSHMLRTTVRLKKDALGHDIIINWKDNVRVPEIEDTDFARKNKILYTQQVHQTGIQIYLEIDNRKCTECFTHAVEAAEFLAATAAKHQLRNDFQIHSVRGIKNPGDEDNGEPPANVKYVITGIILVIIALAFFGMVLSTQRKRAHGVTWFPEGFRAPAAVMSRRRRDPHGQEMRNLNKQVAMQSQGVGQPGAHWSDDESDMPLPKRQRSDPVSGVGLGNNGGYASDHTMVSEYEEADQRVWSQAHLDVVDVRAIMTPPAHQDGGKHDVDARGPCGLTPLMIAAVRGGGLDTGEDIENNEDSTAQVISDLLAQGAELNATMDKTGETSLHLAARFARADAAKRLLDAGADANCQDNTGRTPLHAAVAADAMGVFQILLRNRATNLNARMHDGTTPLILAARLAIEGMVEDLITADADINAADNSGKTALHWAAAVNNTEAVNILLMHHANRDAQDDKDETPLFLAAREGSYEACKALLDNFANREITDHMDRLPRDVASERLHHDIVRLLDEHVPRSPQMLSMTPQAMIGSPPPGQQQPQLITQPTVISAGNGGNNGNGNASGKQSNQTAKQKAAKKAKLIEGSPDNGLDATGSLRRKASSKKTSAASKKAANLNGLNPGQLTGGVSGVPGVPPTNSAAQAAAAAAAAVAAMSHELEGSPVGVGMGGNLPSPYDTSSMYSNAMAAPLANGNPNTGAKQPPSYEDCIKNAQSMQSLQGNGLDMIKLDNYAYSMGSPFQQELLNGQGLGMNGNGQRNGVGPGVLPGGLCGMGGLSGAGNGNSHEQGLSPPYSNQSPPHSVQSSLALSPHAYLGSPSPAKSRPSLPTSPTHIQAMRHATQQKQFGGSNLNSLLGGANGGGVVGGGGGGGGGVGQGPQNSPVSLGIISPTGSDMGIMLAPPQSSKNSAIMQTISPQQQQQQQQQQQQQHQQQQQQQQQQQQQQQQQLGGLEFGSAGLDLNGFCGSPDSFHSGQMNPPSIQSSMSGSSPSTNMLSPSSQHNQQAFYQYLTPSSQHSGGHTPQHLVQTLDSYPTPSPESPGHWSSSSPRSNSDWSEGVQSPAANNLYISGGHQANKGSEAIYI

Notch (Drosophila), full length Notch expression construct #1 pMtNMg, P07207 53-2703
fraction of expressing cells found in clusters of four or more stained cells [1]: 32 to 54%
degree of aggregation [2]: 63 to 71%
fraction of expressing cells found in clusters of four or more stained cells [3]: -0 to 5%
% of Notch+ cells in Notch+-Delta+ cell aggregates [4]: 23%

B1
binding result [5]: no binding

B2: Delta (Drosophila), expression construct pMTDl1 (ligand)
chain: QVHSSGSFELRLKYFSNDHGRDNEGRCCSGESDGATGKCLGSCKTRFRVCLKHYQATIDTTSQCTYGDVITPILGENSVNLTDAQRFQNKGFTNPIQFPFSFSWPGTFSLIVEAWHDTNNSGNARTNKLLIQRLLVQQVLEVSSEWKTNKSESQYTSLEYDFRVTCDLNYYGSGCAKFCRPRDDSFGHSTCSETGEIICLTGWQGDYCHIPKCAKGCEHGHCDKPNQCVCQLGWKGALCNECVLEPNCIHGTCNKPWTCICNEGWGGLYCNQDLNYCTNHRPCKNGGTCFNTGEGLYTCKCAPGYSGDDCENEIYSCDADVNPCQNGGTCIDEPHTKTGYKCHCANGWSGKMCEEKVLTCSDKPCHQGICRNVRPGLGSKGQGYQCECPIGYSGPNCDLQLDNCSPNPCINGGSCQPSGKCICPAGFSGTRCETNIDDCLGHQCENGGTCIDMVNQYRCQCVPGFHGTHCSSKVDLCLIRPCANGGTCLNLNNDYQCTCRAGFTGKDCSVDIDECSSGPCHNGGTCMNRVNSFECVCANGFRGKQCDEESYDSVTFDAHQYGATTQARADGLTNAQVVLIAVFSVAMPLVAVIAACVVFCMKRKRKRAQEKDDAEARKQNEQNAVATMHHNGSGVGVALASASLGGKTGSNSGLTFDGGNPNIIKNTWDKSVNNICASAAAAAAAAAAADECLMYGGYVASVADNNNANSDFCVAPLQRAKSQKQLNTDPTLMHRGSPAGSSAKGASGGGPGAAEGKRISVLGEGSYCSQRWPSLAAAGVAGACSSQLMAAASAAGSGAGTAQQQRSVVCGTPHM
notes: also called Delta+ cells; L49-6-7 stably transformed Delta expressing cell line
binding result [6]: binds
binding result [7]: no binding
